Laboratory results reported in US20100285037A1 (ARCA BIOPHARMA, published 2010).
One block for each binder: values may come before it.

How the values were obtained:
[1] = biological target: T1, CLL-1 on cells (HEK293 cells stably transfected with CLL-1; HL-60 and other AML cells) (human, UniProt Q5QGZ9 1-265); test: cell-based or functional assay
T1 sequence: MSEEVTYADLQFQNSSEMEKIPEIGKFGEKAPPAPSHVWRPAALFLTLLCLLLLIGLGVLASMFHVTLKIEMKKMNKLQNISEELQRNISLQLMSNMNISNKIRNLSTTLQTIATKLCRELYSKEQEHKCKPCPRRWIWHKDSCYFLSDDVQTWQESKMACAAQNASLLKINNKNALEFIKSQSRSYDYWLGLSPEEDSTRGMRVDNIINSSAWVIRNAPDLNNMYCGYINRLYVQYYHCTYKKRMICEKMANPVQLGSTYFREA

[2] = biological target: T2, CLL-1-ECD-V5His recombinant protein (human, UniProt Q5QGZ9 67-265); test: SPR (BIAcore), mAb captured via anti-mouse mAb, antigen in solution, 25° C.
T2 construct: also called recombinant CLL-1 protein; CLL-1 V5-6His protein; not shown: C-terminal V5-His tag
T2 sequence: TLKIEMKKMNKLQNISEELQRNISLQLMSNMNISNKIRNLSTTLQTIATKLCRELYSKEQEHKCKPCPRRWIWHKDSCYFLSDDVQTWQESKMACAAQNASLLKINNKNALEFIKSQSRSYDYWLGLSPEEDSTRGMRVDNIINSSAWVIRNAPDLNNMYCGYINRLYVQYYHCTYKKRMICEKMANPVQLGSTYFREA
Description: (§1) Kinetic rate constants (kₐ and kd) were determined using surface plasmon resonance and affinities (KD) were then calculated from the rate constants (kd/kₐ). Surface plasmon resonance was carried out on a BlAcore system (Biacore International AB, Uppsala, Sweden). Chimeric monoclonal antibodies (21.16 or 1075.7) were diluted to 2 μg/ml and then captured on the biosensor surface using an anti-mouse mAb. Antigen was diluted to a starting concentration of 46 nM and tested for binding to the mAb samples using a 3-fold dilution series. Each of 5 concentrations was tested twice except the highest concentration which was tested 5 times in total, two times with a short dissociation of 300 seconds followed by three times with a dissociation of 60 minutes. The data sets from the long dissociation experiments were globally fit with the shorter association experiments to determine binding constants for the interactions. The analysis was carried out in HBS, pH 7.4 buffer at 25° C. (Canziani et al, Anal. Biochem. 352:301-307 (2004)).

[3] = biological target: T2, CLL-1-ECD-V5His recombinant protein; test: SPR (BIAcore), mAb captured via anti-mouse mAb, antigen in solution, 25° C.; KD = kd/ka
Description: as §1

- kon [2]: 554000 M⁻¹ s⁻¹
B1: chimeric anti-CLL-1 monoclonal antibody 21.16 (antibody, human IgG1, V domains shown)
VH: QVQLQQPGAELVKPGTSVKLSCKASGYTFTRYWMHWVKQRPGQGLEWIGMIHPSSGSTSYNEKVKNKATLTVDRSSTTAYMQLSSLTSEDSAVYYCARDGDYYYGTGDYWGQGTTLTVSS
VL: QIVLSQSPAILSASPGEKVTMTCRASSSINYMHWYQQKPGSSPKPWIFATSNLASGVPSRFSGSGSGTSYSLTISRVEAEDAATYYCQQWRSDRALTFGAGTKLELIR
notes: No cleavage site is stated; also called mAb 21.16; VL1VH1
- EC50 of complement-dependent cytotoxicity (CDC) on OCI-AML5 cells [1]: ~0.0071 µg/mL
- EC50 of ex vivo cytotoxicity on patient AML sample 'M1' [1]: 0.284 µg/mL
- EC50 of ex vivo cytotoxicity on patient AML sample 'M5a' [1]: 0.146 µg/mL
- complement-dependent cytotoxicity (CDC), EC50, HEK293 cells expressing CLL-1 [1]: ~0.088 µg/mL

- Kd [3]: 0.36 nM
- koff [2]: 0.00015 s⁻¹
- kon [2]: 417000 M⁻¹ s⁻¹
B2: chimeric anti-CLL-1 monoclonal antibody 1075.7 (antibody, human IgG1, V domains shown)
VH: DIQLQESGPGLVKPSQSLSLTCSVTGYSITSAYYWNWIRQFPGNKLEWMGYISYDGRNNYNPSLKNRISITRDTSKNQFFLKLNSVTTEDTATYYCAKEGDYDVGNYYAMDYWGQGTSVTVSS
VL: ENVLTQSPAIMSASPGEKVTMTCRASSNVISSYVHWYQQRSGASPKLWIYSTSNLASGVPARFSGSGSGTSYSLTISSVEAEDAATYYCQQYSGYPLTFGAGTKLELKR
notes: No cleavage site is stated; also called mAb 1075.7; clone #1075.7
